Source: the nanobody polyreactivity screen of Harvey et al. (2022)

Assay: yeast display, Sf9 membrane polyspecificity reagent, FACS + sequencing; frameworks hold sequencing errors
In short: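 Polyreactivity labels are assigned by the sorting gate from which each nanobody was recovered. The gates were low and high (top ~1%), set on anti-HA fluorescence for expression and streptavidin fluorescence for reagent binding. Before sorting, galactose-induced (36–48 hours) yeast display cells were stained for 1 hour at 4 °C with 10% biotinylated, detergent-solubilized Sf9 membrane reagent.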
In the case of “QVQLVESGGGLVQAGGSLRLSCAASGSIFDYYAMGWYRQAPGKERELVAAISRSGTTNYADSVKGRFTISRDNAKNTVYFQMNSLKPEDTAVYYCNARTRGYRYTSALYYWGQGTQVTVSS”, the “polyreactivity (PSR sort gate)” value is reported as “high polyreactivity”.
With “QVQLVESGGGLVQAGGSLRLSCAASGSIFDYYAMGWYRQAPGKERELVAAISTSTSSTYYADSVKGRFTISRDNAKNTVYLQMNSLKPEDTAVYYCAAEGESQPESPGYDYWGQGTQVTVSS” the “polyreactivity (PSR sort gate)” value was “low polyreactivity”.
With “QVQLVESGGGLVQAGGSLRLSCAASGSIFDYYTMGWYRQAPGKERELVASITRDGTSTYYADSVKGRFTISRDNAKNTVYLQMNSLKPEDTAVYYCAAERYGFTYSFYYWGQGTQVTVSS” the “polyreactivity (PSR sort gate)” value was “low polyreactivity”.
For “QVQLVESGGGLVQAGGSLRLSCAASGSIFDYYVMGWYRQSPGKERELVAAISLSGGSTYYADSVKGRFTISRDNAKNTVYLQMNSLKPEDTAVYYCNADSQWYDYDYWGQGTQVTVSS”, the “polyreactivity (PSR sort gate)” value was “high polyreactivity”.
In the case of “QVQLVESGGGLVQAGGSLRLSCAASGSIFEGNAMGWYRQAPGKERELVAAISTTGGITYYADSVKGRFTISRDNAKNTVFLQMNSLKPEDTAVYYCAADPSQPRIDSSNYDYWGQGTQVTLSS”, the “polyreactivity (PSR sort gate)” value is reported as “low polyreactivity”.
For “QVQLVESGGGLVQAGGSLRLSCAASGSIFEGNGMGRYRQAPGKERELVAAITFRSGSTYYADSVKGRFTISRDNAKNTVYLQMNSLKPEDTAVYYCAADEYYQVSAYDYWGQGTQVNVSS”, the “polyreactivity (PSR sort gate)” value was “low polyreactivity”.
With “QVQLVESGGGLVQAGGSLRLSCAASGSIFEGNTMGWYRQAPGKERELVASISSTANTYYADSVKGRFTLSRDNAKKNVYLQMNSLKPEDTAVYYCNVARYFLVPVVDDNYWGQGTQVTVSS” the “polyreactivity (PSR sort gate)” value was “low polyreactivity”.
In the case of “QVQLVESGGGLVQAGGSLRLSCAASGSIFEGYVMGWYRQAPGKERELVATISFSGGSTYYADSVKGRFTISRDNAKNTVYLQMNSLKPEDTAVYYCATSRYFNTGRGYWGQGTQVTVSS”, the “polyreactivity (PSR sort gate)” value is reported as “low polyreactivity”.
With “QVQLVESGGGLVQAGGSLRLSCAASGSIFEINAMGWYRQAPGKERELVAAITGSGGSTHYADSVKGRFTISRDTAKNTVYLQMNSLKPEDTAVYYCAADICYFTKYGYWGQGTQVTVSS” the “polyreactivity (PSR sort gate)” value was “low polyreactivity”.
For “QVQLVESGGGLVQAGGSLRLSCAASGSIFEINAMGWYRQGPGKERELVAAITGSGGSTHYADSVKGRFTISRDNAKNTDYLQMNSLKPEDTAVYYGAAVPRYQDGYWGQGTQVTVSS”, the “polyreactivity (PSR sort gate)” value was “low polyreactivity”.
For “QVQLVESGGGLVQAGGSLRLSCAASGSIFEPNAMGWYRQAPGKERELVAAISWNDGDTYYADSVKGRFTISRDNAKNTVYLQMNCLKPEDTAVYYCAAETGYAFDYWGQGTQVTVSS”, the “polyreactivity (PSR sort gate)” value was “low polyreactivity”.
For “QVQLVESGGGLVQAGGSLRLSCAASGSIFEPNAMGWYSQAPGKERELVAAISWNDGDTYYADSVKGRFTISRDNAKNTVYLQMNSLKPEDTAVYYCAAETGYAFDYWGQGTQVTVSS”, the “polyreactivity (PSR sort gate)” value was “low polyreactivity”.
For “QVQLVESGGGLVQAGGSLRLSCAASGSIFEPYAMGLYRQAPGKERELVAAIRWSGGSTYYADSVKGRFTISRDNAKNTVYLQMNSLKPEDTAVYYCAKYFPAGYYYWGQGTQVTVSS”, the “polyreactivity (PSR sort gate)” value was “low polyreactivity”.
In the case of “QVQLVESGGGLVQAGGSLRLSCAASGSIFERYDMGWYRQAPGKERELVAAITSAGITYYADSVKGRFTISRDNAKNTVYLQMNSLKPEDTAVYYCAAQGRRGAPYRHVIEGDYWGQGTQVTVSS”, the “polyreactivity (PSR sort gate)” value is reported as “low polyreactivity”.
In the case of “QVQLVESGGGLVQAGGSLRLSCAASGSIFESNAMGWYRQAPGKEREFVAAIDWGDGSTSYADSVKGRFTISRDNAKNTVYLQMNSLKPEDTAVYYCAARSVFDLVYYNLIFDYWGQGTQVTVSS”, the “polyreactivity (PSR sort gate)” value is reported as “high polyreactivity”.
In the case of “QVQLVESGGGLVQAGGSLRLSCAASGSIFESYAMGWYRQAPGKERELVAAITKRGGSTYYADSVKGRFTISRDNAKYTVYLQMNSLKPEDTAVYYCNARWPGIGPIYDYCGQGTQVTVSS”, the “polyreactivity (PSR sort gate)” value is reported as “low polyreactivity”.
